The assay deals with pembrolizumab F(ab')2 protein. The assay can be described thus: SPR (BIAcore T200), Fab-SASA captured on BSA chip, pembrolizumab F(ab')2 as analyte, 1:1 fit. (In general: In SPR one partner is held on a chip, and binding of the other changes the refractive index at the surface.)

Usually koff stands for the first-order rate constant of dissociation. A low value points to a long-lived complex.

Sequence of pembrolizumab F(ab')2 protein (chain, as listed by the source, chain 1 of 2): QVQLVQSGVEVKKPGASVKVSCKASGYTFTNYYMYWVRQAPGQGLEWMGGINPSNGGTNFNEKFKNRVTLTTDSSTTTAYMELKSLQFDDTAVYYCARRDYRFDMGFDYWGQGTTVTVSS
Sequence of pembrolizumab F(ab')2 protein (chain, as listed by the source, chain 2 of 2): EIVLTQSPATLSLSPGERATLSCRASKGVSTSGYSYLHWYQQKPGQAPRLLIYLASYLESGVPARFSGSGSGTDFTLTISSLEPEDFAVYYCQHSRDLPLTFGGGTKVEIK

B1: A30514 Fab antibody (Fab-SASA secreted to culture medium) (Fab, V domains shown)
VH: QEQLVESGGRLVTPGTPLTLTCTASGFSLGSDFMSWVRQAPGKGLEWIGYIDPRSDIPYYASWAKGRFTISKTSTTVDLKITSPTTEDTATYFCARDLNAGYFNGIFYIWGPGTLVTVSS
VL: ELVMTQTPSSVSAAVGDTVTINCQASETVATLLAWYQQKPGQPPKLLIYGASNLESGVPSRFRGSGSGTEFTLTISGMKAEDAATYYCQYGYISTGSNTFGAGTNVEIK
notes: Rabbit variable domains from a Fab phage library; Tested as Fab-SASA expressed from the pFASEBA vector and captured on BSA via SASA
In the case of B1, the koff stood at 6.5e-05 s⁻¹.

B2: A30523 Fab antibody (Fab-SASA secreted to culture medium) (Fab, V domains shown)
VH: B1 VH
VL: ELDMTQTPSSTSEPVGGTVTINCQASQTISSYLSWYQQKPGHPPKLLIYDASDLASGVPSRFSGSRSGTQFTLTISGVQCDDAATYYCLGVYDYRSDDGAAFGGGTELEIL
notes: as for B1
Consider B2, for which the koff was found to be 0.00034 s⁻¹.

B3: A30633 Fab antibody (Fab-SASA secreted to culture medium) (Fab, V domains shown)
VH: QSLEESGGRLVTPGTPLTLTCTVSGFSLSTNDMNWVRQAPGKGLEWIGVIYSDDTPDYATWAKGRFTISRTSTTVDLKITSPTTEDTATYFCARGHYDSAVYAYALNIWGPGTLVTVSS
VL: ELVMTQTPSSVSAAVGGTVTITCQASQSLSNLLAWYQQKPGQPPKLLIYGASNLESGVPSRFRGSGSGTDFTLTISGMKAEDAATYYCQGGHYSGLTFGNGTNVEIK
notes: as for B1
B3 registered a koff of 0.0012 s⁻¹.

For the origin of these results see patent publication US20170089914A1 (Merck Sharp & Dohme, published 2017).
